Measurements as given in paper PMC4822050.

How the values were obtained:
Assay in all cases: FP; ITC: 10 mM HEPES pH 8.0, 100 mM NaCl, 18 C; EMSA: 20 mM HEPES pH 7.5, 100 mM NaCl, 8% glycerol, 1 mM DTT, on ice; pull-down: 20 mM HEPES-NaOH pH 8.0, 100 mM NaC
SRA-Spacer = biological target: T1, SRA-Spacer (human, UniProt Q96T88 414-674)
T1 sequence: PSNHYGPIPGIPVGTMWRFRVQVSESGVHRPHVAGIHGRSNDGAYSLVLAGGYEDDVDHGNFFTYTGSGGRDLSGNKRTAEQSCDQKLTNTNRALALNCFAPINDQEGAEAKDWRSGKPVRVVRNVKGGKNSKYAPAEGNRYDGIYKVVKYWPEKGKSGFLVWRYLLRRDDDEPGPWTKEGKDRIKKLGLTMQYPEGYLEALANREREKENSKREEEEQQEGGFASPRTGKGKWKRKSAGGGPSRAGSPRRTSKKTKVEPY

UHRF1 deltaTTD = biological target: T2, UHRF1 deltaTTD (human, UniProt Q96T88 1-793, del134-285)
T2 sequence: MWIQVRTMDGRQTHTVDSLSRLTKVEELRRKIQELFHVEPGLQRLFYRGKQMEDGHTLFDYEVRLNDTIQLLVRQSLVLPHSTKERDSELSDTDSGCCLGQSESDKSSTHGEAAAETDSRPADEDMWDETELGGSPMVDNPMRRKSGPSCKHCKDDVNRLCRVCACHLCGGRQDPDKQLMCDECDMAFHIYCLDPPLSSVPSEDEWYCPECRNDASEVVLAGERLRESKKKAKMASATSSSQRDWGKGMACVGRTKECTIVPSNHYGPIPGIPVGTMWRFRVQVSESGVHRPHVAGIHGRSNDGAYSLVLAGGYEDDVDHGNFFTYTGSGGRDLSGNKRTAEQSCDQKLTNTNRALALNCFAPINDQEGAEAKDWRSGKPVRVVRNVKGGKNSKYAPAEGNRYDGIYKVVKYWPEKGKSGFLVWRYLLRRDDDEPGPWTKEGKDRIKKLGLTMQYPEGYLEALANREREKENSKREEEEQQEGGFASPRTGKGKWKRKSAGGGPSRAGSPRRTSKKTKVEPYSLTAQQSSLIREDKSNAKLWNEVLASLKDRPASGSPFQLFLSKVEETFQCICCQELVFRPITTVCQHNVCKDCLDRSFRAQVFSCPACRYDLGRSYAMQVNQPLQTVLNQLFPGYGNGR

UHRF1 full-length = biological target: T3, UHRF1 full-length (human, UniProt Q96T88 1-793)
T3 sequence: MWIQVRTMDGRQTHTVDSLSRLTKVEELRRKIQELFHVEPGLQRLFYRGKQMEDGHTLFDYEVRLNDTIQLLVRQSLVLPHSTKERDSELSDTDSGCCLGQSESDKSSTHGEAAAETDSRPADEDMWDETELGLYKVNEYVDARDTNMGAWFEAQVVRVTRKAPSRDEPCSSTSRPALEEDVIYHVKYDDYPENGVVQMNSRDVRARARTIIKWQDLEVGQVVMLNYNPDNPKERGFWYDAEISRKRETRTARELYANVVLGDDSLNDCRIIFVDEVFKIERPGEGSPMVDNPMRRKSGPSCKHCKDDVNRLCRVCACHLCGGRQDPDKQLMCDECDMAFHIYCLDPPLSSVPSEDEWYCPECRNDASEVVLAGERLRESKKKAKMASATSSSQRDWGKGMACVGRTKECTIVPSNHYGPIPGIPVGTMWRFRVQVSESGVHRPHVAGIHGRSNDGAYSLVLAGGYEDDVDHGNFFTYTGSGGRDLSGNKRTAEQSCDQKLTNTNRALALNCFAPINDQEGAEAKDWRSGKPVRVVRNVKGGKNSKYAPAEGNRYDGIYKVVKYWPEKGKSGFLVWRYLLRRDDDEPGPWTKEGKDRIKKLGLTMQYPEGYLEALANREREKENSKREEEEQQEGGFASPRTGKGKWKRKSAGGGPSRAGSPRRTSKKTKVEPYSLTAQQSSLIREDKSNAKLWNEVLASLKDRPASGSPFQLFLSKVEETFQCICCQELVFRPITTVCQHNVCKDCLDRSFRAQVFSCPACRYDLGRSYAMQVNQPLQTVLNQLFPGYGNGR

SRA-Spacer-642 = biological target: T4, SRA-Spacer-642 (human, UniProt Q96T88 414-642)
T4 sequence: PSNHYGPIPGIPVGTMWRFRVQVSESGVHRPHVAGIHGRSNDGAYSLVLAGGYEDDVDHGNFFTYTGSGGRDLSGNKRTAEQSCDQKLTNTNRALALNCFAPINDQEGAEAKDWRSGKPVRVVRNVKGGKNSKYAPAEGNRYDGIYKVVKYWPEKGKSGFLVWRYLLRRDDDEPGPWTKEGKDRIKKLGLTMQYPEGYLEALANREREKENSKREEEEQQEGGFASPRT

SRA-Spacer-661 = biological target: T5, SRA-Spacer-661 (human, UniProt Q96T88 414-661)
T5 sequence: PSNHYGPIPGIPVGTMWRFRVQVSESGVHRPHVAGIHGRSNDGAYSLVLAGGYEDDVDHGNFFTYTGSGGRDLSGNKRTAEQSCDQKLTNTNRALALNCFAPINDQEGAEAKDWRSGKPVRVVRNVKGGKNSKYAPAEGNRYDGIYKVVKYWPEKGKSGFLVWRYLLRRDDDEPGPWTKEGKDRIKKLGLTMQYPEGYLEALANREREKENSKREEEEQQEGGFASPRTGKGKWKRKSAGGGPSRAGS

B1: FAM-12bp-HM-DNA (dsDNA)
DNA 1: CCATGCGCTGAC
DNA 2: GTCAGCGCATGG
modifications: 5-methyl-dC at position 6 of strand 2 (GTCAGXGCATGG)
Kd (SRA-Spacer): 490 ± 80 nM | Kd (UHRF1 deltaTTD): 490 ± 80 nM | Kd (UHRF1 full-length): 350 ± 70 nM | Kd (SRA-Spacer-642): 6110 ± 1150 nM | Kd (SRA-Spacer-661): 380 ± 60 nM
